Values joined by “and” are separate entries in the source; they are usually repeats but may differ in a detail not shown here. Equal values may be shown once.
Tests used:
[1] = biological target: CAP256SU_UCA_OPT_3.0
[2] = biological target: CAP256SU (HIV-1)
[3] = biological target: CAP256SU_UCA_OPT
[4] = biological target: CH505 UCA_OPT_2+H130D
[5] = biological target: CH505 UCA_OPT2+N332
[6] = biological target: CAM13RRK
[7] = biological target: CAM13K+K169R (SIVcpz)
[8] = biological target: CH505_V2UCAOPT_v3.0

In the case of CAP256 VRC26 UCA (antibody), the fold reduction of neutralization reactivity [1] is reported as 3 fold and 4 fold and the IC50, neutralization [2] is reported as 35 µg/mL.
For CH01 UCA (antibody), the IC50, neutralization [3] was 1.92 µg/mL.
Work on PCT64 LMCA (antibody) yielded a 50% neutralization, pseudovirus neutralization [4] of 100 µg/mL and an IC50, pseudovirus neutralization [5] of 105 µg/mL.
PG16 RUA (antibody) gave a fold enhancement of neutralization sensitivity [6] of 50 fold, a fold enhancement of neutralization sensitivity [7] of 10 fold and a fold improvement of neutralization sensitivity [8] of 100 fold.

Source: US20250340598A1
